Experimental data from publication doi:10.1101/2022.11.08.515461 (bioRxiv, 2022).

Molecular target: yeast dynein_(MOTOR)^MT-B (microtubule-bound mutant of the motor domain) (budding yeast | T. thermophilus) (UniProt P34945)
Test: mass photometry

yeast dynein_(MOTOR)^MT-B (microtubule-bound mutant of the motor domain) (budding yeast | T. thermophilus), sequence (P34945 whole entry, change not shown, the tested form may be a part): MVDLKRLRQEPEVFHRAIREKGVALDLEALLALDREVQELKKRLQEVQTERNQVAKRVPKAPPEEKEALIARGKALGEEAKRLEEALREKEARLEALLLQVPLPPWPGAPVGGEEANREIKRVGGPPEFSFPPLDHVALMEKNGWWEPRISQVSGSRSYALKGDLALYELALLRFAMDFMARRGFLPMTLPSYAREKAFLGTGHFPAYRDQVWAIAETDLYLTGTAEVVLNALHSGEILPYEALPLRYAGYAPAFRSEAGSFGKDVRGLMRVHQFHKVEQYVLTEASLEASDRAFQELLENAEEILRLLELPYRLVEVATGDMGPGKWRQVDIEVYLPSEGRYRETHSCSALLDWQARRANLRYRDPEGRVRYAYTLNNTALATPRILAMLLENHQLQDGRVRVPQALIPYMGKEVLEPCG

B1: Pac1-SNAP (natural protein)
chain: MTNWQQQLPLTDTQKNELDKSVLRYLNWNYKQTVRHEHAQDYESVRHAIVTLSGFLLQESVDRQEFISNNDTSNESMVDIDELLLPKKWNSIVRLQKKIIELEQNTETLVSQIKDLNTQVSELAQFKPTTSNGTSAHNVLKWIPRNLPSCLINVESSVTSVKLHPNLPIVFVATDHGKLYAFDLFNYTIPLASLQSHTKAITSMDVLFTNYTNSSKKNYLVIVTASKDLQIHVFKWVSEECKFQQIRSLLGHEHIVSAVKIWQKNNDVHIASCSRDQTVKIWDFHNGWSLKTFQPHSQWVRSIDVLGDYIISGSHDTTLRLTHWPSGNGLSVGTGHEFPIEKVKFIHFIEDSPEIRFRTPSTDRYKNWGMQYCVSASRDRTIKIWEIPLPTLMAHRAPIPNPTDSNFRCVLTLKGHLSWVRDISIRGQYLFSCADDKSVRCWDLNTGQCLHVWEKLHTGFVNCLDLDVDFDSNVTPRQMMVTGGLDCKSNVFMR
modifications: JF646-SNAP-tag ligand on the SNAP tag (fluorescent labelling)
stoichiometry N (Pac1 dimer per dynein (MOTOR) monomer): 1
